From US10081667B2, “Composition and method for therapeutic agent delivery during pregnancy” (University of Mississippi Medical Center, priority 2013, dated 2018)

Assays:
[1] = system: BeWo choriocarcinoma cells; assay: Cellular internalization by fluorescence microscopy, BeWo cells; type: cell-based; details: 1 h exposure, imaged 24 h
Protocol: (§1) FIG. 18 includes images showing the cellular internalization of SynB1-ELP delivered NOX peptide. Rhodamine-labeled SynB1-ELP-NOX was exposed to cells for 1 h, cells were washed, fresh media was returned, and images were collected 24 h after initial exposure.
(§2) It is confirmed that the SynB1-ELP-NOX polypeptide was internalized by cells. Both endothelial cells (HUVECs) and chorionic cells (BeWo choriocarcinoma cells) were exposed to fluorescently labeled SynB1-ELP-NOX for 1 h. The cells were then washed and given fresh media for 24 h.

[2] = system: endothelial cells (HUVECs); assay: Cellular internalization by fluorescence microscopy, HUVECs; type: cell-based, human; details: 1 h exposure, imaged 24 h
Protocol: as §1, §2

[3] = system: placental chorionic villous explants; assay: ROS production in placental chorionic villous explants, dihydroethidium (DHE) assay; type: cell-based, rat; details: 20 or 50 μM, 1% O2, 48 h
Protocol: FIG. 19 includes a graph showing inhibition of reactive oxygen species production of placental villous explants. Villous explants were dissected from rat placentas at day 19 of gestation. Explants were grown ex vivo on a bed of Matrigel in cell culture medium. 24 h after equilibration of explants, media was replaced with media plus SynB1-ELP or SynB1-ELP-NOX, and explants were incubated at 37° C. in a 6% or 1% O2 environment for 48 h. ROS was detected by incubation with 5 μM dihydroethdium for 1 hour, and fluorescence was measured using a florescence plate reader. The assay was performed in triplicate, and data represent the mean±s.e. of three independent experiments each performed with 4 explants per treatment group. *p<0.01, one way ANOVA with post-hoc Bonferonni multiple comparison.
Chorionic villous explants were cut on GD19 and cultured ex vivo on Matrigel coated wells with complete cell culture medium. After equilibration, culture medium was replaced with medium containing SynB1-ELP-NOX or the SynB1-ELP control polypeptides at 20 or 50 μM, and explants were incubated at 6% O2 (representing a healthy placenta) or 1% O2 (representing a preeclamptic placenta). After 48 h exposure to hypoxia, detection of ROS was performed using the dihydroethidium (DHE) assay.

B1: SynB1-ELP-NOX: SynB1 peptide fused to the N-terminus of ELP (SEQ ID NO: 4), NOX peptide at the C-terminus; SEQ ID NO: 16 (protein)
chain: MRGGRLSYSRRRFSTSTGRGCGPGVGVPGAGVPGGGVPGAGVPGGGVPGAGVPGGGVPGAGVPGGGVPGAGVPGGGVPGAGVPGGGVPGAGVPGGGVPGAGVPGVGVPGAGVPGGGVPGAGVPGGGVPGAGVPGGGVPGAGVPGGGVPGAGVPGGGVPGAGVPGGGVPGAGVPGGGVPGAGVPGVGVPGAGVPGGGVPGAGVPGGGVPGAGVPGGGVPGAGVPGGGVPGAGVPGGGVPGAGVPGGGVPGAGVPGGGVPGAGVPGVGVPGAGVPGGGVPGAGVPGGGVPGAGVPGGGVPGAGVPGGGVPGAGVPGGGVPGAGVPGGGVPGAGVPGGGVPGAGVPGVGVPGAGVPGGGVPGAGVPGGGVPGAGVPGGGVPGAGVPGGGVPGAGVPGGGVPGAGVPGGGVPGAGVPGGGVPGAGVPGVGVPGAGVPGGGVPGAGVPGGGVPGAGVPGGGVPGAGVPGGGVPGAGVPGGGVPGAGVPGGGVPGAGVPGGGVPGAGVPGVGVPGAGVPGGGVPGAGVPGGGVPGAGVPGGGVPGAGVPGGGVPGAGVPGGGVPGAGVPGGGVPGAGVPGGGVPGAGVPGVGVPGAGVPGGGVPGAGVPGGGVPGAGVPGGGVPGAGVPGGGVPGAGVPGGGVPGAGVPGGGVPGAGVPGGGVPGAGVPGVGVPGAGVPGGGVPGAGVPGGGVPGAGVPGGGVPGAGVPGGGVPGAGVPGGGVPGAGVPGGGVPGAGVPGGGVPGAGVPGVGVPGAGVPGGGVPGAGVPGGGVPGAGVPGGGVPGAGVPGGGVPGAGVPGGGVPGAGVPGGGVPGAGVPGGGVPGAGVPGWPGSGGCSTRIRRQL
modifications: synthetic SynB1-ELP-NOX sequence
In the case of B1, the “internalization in BeWo cells” value [1] is reported as “detectable in a punctate cytoplasmic distribution in both cell lines”, the “internalization in HUVECs” value [2] is reported as “detectable in a punctate cytoplasmic distribution in both cell lines” and the “ROS production of hypoxic explants” value [3] is reported as “inhibited this ROS production”.
